# Measurements: patent US20210260163A1
# Target: IL-2Rα (on CTLL2 cells) (UniProt P01590)
# Experiment: cell-based or functional assay
# Sequence of IL-2Rα (on CTLL2 cells) (P01590 22-268 limits assumed): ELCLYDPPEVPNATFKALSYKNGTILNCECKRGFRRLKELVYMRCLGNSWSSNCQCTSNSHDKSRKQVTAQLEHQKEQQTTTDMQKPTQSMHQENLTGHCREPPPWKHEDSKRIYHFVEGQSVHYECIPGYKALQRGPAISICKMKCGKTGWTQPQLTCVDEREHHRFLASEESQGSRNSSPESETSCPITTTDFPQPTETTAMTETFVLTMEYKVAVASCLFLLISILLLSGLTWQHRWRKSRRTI
row,Substance,EC50 in the CTLL2 cell-based activity assay
1,HSA-IL-2-T3A/C125S-F42A/Y45A/L72G (SEQ ID NO: 126),77 nM
2,HSA-IL-2-T3A/C125S-R38S/F42A/Y45A/E62A (SEQ ID NO: 127),76 nM
3,IgG1FC (with LALA and Knob)-IL-2-T3A/C125S-R38S/F42A/Y45A/A73T (SEQ ID NO: 135) paired with Fc hole (SEQ ID NO: 194) (from UniProt P0DOX5 223-449) (Fc fusion),60 nM
4,IgG1FC (with LALA and Knob)-IL-2-T3A/C125S-R38S/F42A/Y45A/E62A (SEQ ID NO: 132) paired with Fc hole (SEQ ID NO: 194) (from UniProt P0DOX5 223-449) (Fc fusion),60 nM
